{"source": "patent US20140308291A1", "about": "(INTEGRATED BIOTHERAPEUTICS, published 2014)", "target": "T1, wild-type gamma hemolysin B subunit (HlgB) (Staphylococcus aureus, UniProt Q2FVK1 27-325)", "T1 construct": "also called Gamma B; gamma hemolysin component B", "T1 sequence": "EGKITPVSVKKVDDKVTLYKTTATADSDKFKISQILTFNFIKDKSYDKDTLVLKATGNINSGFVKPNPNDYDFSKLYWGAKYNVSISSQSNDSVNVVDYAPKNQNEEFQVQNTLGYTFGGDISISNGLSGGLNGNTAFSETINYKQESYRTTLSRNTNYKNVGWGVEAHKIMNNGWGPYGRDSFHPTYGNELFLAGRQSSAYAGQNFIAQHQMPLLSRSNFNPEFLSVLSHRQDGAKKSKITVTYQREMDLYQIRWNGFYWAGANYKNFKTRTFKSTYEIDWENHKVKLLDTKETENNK", "assay": "MPD-based oligomerization assay (40% MPD, 24 hours), SDS-PAGE without boiling", "data": [{"binder": "LukS-PV triple mutant T28F/K97A/S209A (Mut9) (other) HHHHHHDNNIENIGDGAEVVKRTEDTSSDKWGVFQNIQFDFVKDKKYNKDALILKMQGFINSKTTYYNYKNTDHIKAMRWPFQYNIGLKTNDPNVDLINYLPANKIDSVNVSQTLGYNIGGNFNSGPSTGGNGSFNYSKTISYNQQNYISEVEHQNSKSVQWGIKANSFITSLGKMSGHDPNLFVGYKPYSQNPRDYFVPDNELPPLVHSGFNPAFIATVSHEKGSGDTSEFEITYGRNMDVTHATRRTTHYGNSYLEGSRIHNAFVNRNYTVKYEVNWKTHEIKVKGHN", "values": [{"measurement": "binding result", "value": "no binding"}]}]}
